Results taken from article PMC12175502, “7β-Hydroxysteroid dehydratase Hsh3 eliminates the 7-hydroxy group of the bile salt ursodeoxycholate during degradation by Sphingobium sp. strain Chol11 and other Sphingomonadaceae” (Applied and Environmental Microbiology, 2025).

Key:
Hsh2 = test system: T1, Hsh2; test: continuous spectrophotometric assay at […] nm; format: biochemical, Sphingobium sp. Chol11; details: 50 mM MOPS pH 7.8, 30 °C, 25% ethanol; dehydration; substrate range 50 µM to 1 mM
T1 construct: tag not reported cut

[1] = test system: T2, C[C@]12C=CC(=O)C=C1C[C@H](O)[C@@H]1[C@@H]2CC[C@]2(C)C(=O)CC[C@@H]12; test: purified protein; format: biochemical, Sphingobium sp. Chol11; details: 50 mM MOPS pH 7.8, 30 °C, 25% ethanol, dehydration, substrate range 50 µM to 1 mM
T2 construct: His-tagged, pET28b(+), E. coli Tuner(DE3), Ni-NTA and desalting gel filtration; tag not reported cut; primers read start MEKLICAL and end AHLDGK before vector C-terminal tag

Molecule: C[C@]12C=CC(=O)C=C1C[C@@H](O)[C@@H]1[C@@H]2CC[C@]2(C)C(=O)CC[C@@H]12 [XI, 7α-hydroxy-androsta-1,4-diene-3,17-dione]
- Km (Hsh2): 250 ± 50 µM

Molecule: Hsh3 (Nov2c681) (Sphingobium sp.)
- Km [1]: 1260 ± 450 µM
- kcat [1]: 130 ± 30.1 s⁻¹
- kcat/Km [1]: 103000 M⁻¹ s⁻¹
